Reference: patent US20200283521A1 (GRANULAR THERAPEUTICS, published 2020)

Target: T1, hDR6-Fc (human, UniProt O75509)
T1 construct: Fc fusion; member of the panel m9
T1 sequence (looked up): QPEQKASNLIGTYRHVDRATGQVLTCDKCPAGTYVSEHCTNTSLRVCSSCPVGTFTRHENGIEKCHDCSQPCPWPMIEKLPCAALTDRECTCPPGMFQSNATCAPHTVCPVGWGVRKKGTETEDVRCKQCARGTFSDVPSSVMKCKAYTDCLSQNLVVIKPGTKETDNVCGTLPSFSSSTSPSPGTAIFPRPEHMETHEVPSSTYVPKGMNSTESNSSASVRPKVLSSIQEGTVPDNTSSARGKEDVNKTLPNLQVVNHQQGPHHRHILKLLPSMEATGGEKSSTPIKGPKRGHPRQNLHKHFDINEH
Test: direct ELISA on coated protein, IgG1

B1: MH5.22 (antibody, IgG1, V domains shown)
VH: QVQLVQSGAEVKKPGASVKVSCKASGYTFTDFYMNWVRQAPGQGLEWMGRIYPASGNTYYAQKFQGRVTMTRDTSTSTVYMELSSLRSEDTAVYYCARGVWYYDYWGQGTLVTVSS
VL: DIQMTQSPSSLSASVGDRVTITCRASQGIRTNLAWFQQKPGKAPKSLIYAASSLQSGVPSRFSGSGSGTDFTLTISSLQPEDFATYYCQQYANYPRTFGGGTKVEIK
notes: IgG1; also called C-KIT-MH5.22
B1: no binding (tested: 1 µg/ml).
